Assay: soluble on expression in E. coli; label from the status in PepcDB or PDB records

Sequence	soluble on expression in E. coli
MGSDKIHHHHHHMMVPHLTTALTGPLLTLEKRLLDNMPRIEHWFRSQWQEYGAPFYASVDLRNAGFKLAPVDTNLFPGGFNNLNPDFLPLCIQAAMVAVEKICPDARRLLLIPENHTRNTFYLRNVHALTHILRQAGLEVRIGSIAPEITAPTFLETHDGHSILLEPVRRKANRLELDNFDSCAILLNNDLSGGIPDILQGLEQSLIPPLHAGWATRRKSNHFTAYDRVVEEFAPLIDIDPWLLNPYFDTCGGLDFHARLGEEQLAEKVDSLLAKIRRKYAEYGVKQEPFVIVKADAGTYGMGIMTVKSADDVRDLNRKQRNKMSVVKEGLKVSEVILQEGVYTFEHLKDAVAEPVIYMMDHFVVGGFYRVHTSRGADENLNAPGMHFEPLTFETPCSTPDCAGAPDAAPNRFYAYGVVARLALLAATIELQETDPDLLDERT	not soluble
MSLEAVKTIEKEKKDLEQKRIEEATEEEIKPGDHVKMEGGTSVGKVVEVKSGTALVDFGFLRLKVPVSKLRKTKKEEKKETSTFSYKPSSFRTEIDIRGMTVEEAEPVVKKFIDDLMMNGISKGYIIHGKGTGKLASGVWEILRKDKRVVSFRFGTPSEGGTGVTVVEVKEGHHHHHH	soluble
MISANKQFDIQLGDEIGKDFFTQDTVVCAFRNKEKTTDFVFTSGPIILICDGTTRRKMIKRRFKMEFDIKKVFFHSFIVTRNAEKLATENCGGPDTKHRDYLVVCGEHKLQFISLPDYHFYHYEIPFKLRNVFSCSTSLLVERFYDSSSEQTFHHHDTFHLYSLSGPFGELLPVIYKTSGYHPQWKFCWQSHRDEAGLVDAQQNYVVVYDQKEKTHRIYMARETQEQEVHAAIRYVEALRRPSDSTMFASSLAPNSAGRTTHFDPTLNSPAENVLSEVISSEIDSRSPFTPHLRSGFGHSTPNNPNAPGYPATLPTPNFEGNFFF	not soluble
SKGYFETNRIQHIIVDEAQNFHTEDGNWCEKAKGITQGGKACPRMFWIFLDYFQTSHLKESGLPDFELQYPKEELTQVVRNGDKIAEFLQQELGKIRDNPPCSIPRASLNIVHEFKWSQSISGTLKIKYLTSEKMVSYVANKCDVFLSKGYSPQDIAVLFSTDREKKAYEHMFLREMRKKRRASQMNDTSVCHSNMFDRIRRFSGLERSIVFGINPIATEQPISHNLLICLASRAMKYLYILYALTPEGQSSTVAC	soluble
MAHHHHHHMKQSKLVSRPSKTKKPKERKDRREDERYQREMDALIAREVARENVSMRSDTHKPQPKLLEEVQKDTSRRPKTPTSLSTAAVEKQAKIDKESGFQPVVNQRKERQQQQHQQQQTSAPKPMLVNEALERKLNHFFSNLNRKEKLTRLSQPEENPTASKGATIIVRKDIANARSWQQQQQ	soluble
MGSDKIHHHHHHMIRINVVGFKGGSGKSTISYHLARQLSEYYNVVLVDKTYSGTISRIYNINNNIFSFLKGRNELFYINKNNLSVINMSFLNEDDLNGIDFNAFKYLYSKLTKDSDIVIVDHSSIPHDFATEIELKAFMENFRNFAYNTVLVLSGDEIPIKKYLNYTVLLNDFVKNYAEKILGISLPTDVKFLKIVAVIINKILKGQESKLEEFIRGDEILQRSARFIIPYYLSLTQRHFKDIDPPKEISDITRYILDFLREPTSIL	not soluble
AHHHHHHGSRVLVTTWGNPFQWEPITYEYRGIKVKSRNTLPILVKTLEPERILILVADTMANYYDSGKNKPEIEEKSFSSYSEVVEDTKERILWHIKEEVIEELREEDPELAKKIENMLKDERITIEVLPGVGVFGNITVEGEMLDFYYYATYKLAEWLPVQNNLEVYLDLTHGINFMPTFTYRALRNLLGLLAYLYNVKFEIVNSEPYPLGVSQEIREDTILHIREIGEGVVRPRPQYSPVEGKLYWNAFISSVANGFPLVFASFYPNIRDVEDYLNKKLEEFLVGIEVGEREDGKPYVKREKALDRSFKNASKLYYALRVFNTKFQNYPKKEVPIEEIMEISKIFESLPRIGIILERQVEWLRNLVYGRLWYENGEQKIKKGLLEIIKDKKDKRKEAEALKKGKTISLAEAAKLTRIFSPSGERIETIESPNVVRNFIAHSGFEYNIVYVKYDRLSDRLYFFYKDKEKAANLAYEALLYRGEKE	soluble
MGSDKIHHHHHHMIRFRNFWLPIWNRKMSMKNLYENDLLYRTTGPALRPGGFELTDWAVEHCRFQAGDRILDVGCGRGATVNRLRSHYHLEAYGIDPSATLLTLGQETYPDLPLSKGRGEDIPFTNSCFDGVFVECSLSLMTDPDQALSEIRRVLKVKGKLIIHDVYARNPQGTPDLRELNIGTCIRNALVKEDLEHGLESKGLRTIHWQDHSPLLNRLMMELIMTHGSMSAFWLKSTDCSADPNRVQAALKKAKVGYFQLIAEKEAEKEAEHCPVR	not soluble
GMDEKPAITKIISGGQTGADRAALDFAIKHHIPYGGWVPKGRLAEGGRVPETYQLQEMPTSDYSKRTEKNVLDSDGTLIISHGILKGGSALTEFFAEQYKKPCLHIDLDRISIEDAATLINSWTVSHHIQVLNIAGPRAGKDPEIYQATMDLLEVFLA	soluble
MAAACICQPNLLEINVSDGPLDMIRKKRKIQQPQLRPPLRENKCQPHFSVRKVNQSYIISLHKEITCQLIAEIVKQKLSRIWEKVYIPSYELISDKDGNQIYVEQSVDENRLTSEIMEKLDPNNIDIEAIEILFDDYHLELSRLTNGIIISSANDHFYREFSFNNIIDDNFKICGTSMSADSFDKIYGVMWIEVPFNGNGLQNDSAVNRVSTSHNQIEELNDIEQEIRAFNISRSNQESIIKKEVSRRLNGR	not soluble
MPFVPVAALKDYVGKDLGHSEWLTIDQERVDQFAECTGDHQFIHVDPEKAAKTPFGGTIAHGFLSLSLIPKLMEGLLVLPEGLKMAVNYGLDTVRFIQPVRVGSRVRLGLTLLDVNEKNPGQWLIKARATLEIEGQEKPAYIAETLSLCFV	not soluble
GSHMQPMQAMKIERGTILTQPGVFGVFTMFKLRPDWNKVPAMERKGAAEEVKKLIEKHKDNVLVDLYLTRGLETNSDFFFRINAYDLAKAQTFMREFRSTTIGKNADVFETLVGVTKPLNYISKDKSPGLNAGLSSATYSGPAPRYVIVIPVKKNAEWWNMSPEERLKEMEVHTTPTLAYLVNVKRKLYHSTGLDDTDFITYFETDDLTAFNNLMLSLAQVKENKFHVRWGSPTTLGTIHSPEDVIKALAD	soluble
MGSDKIHHHHHHMLTLLSYHQKVLDHFKHQTKTWDFFTASQNKDEQLNQYKTELLKNTYKFDPEKDTSIYEKVAKSKQVLGLDINVYVYQAQYSDELNASVGFVNNEAHIVFSGQIIQLLDDDELLTVIAHELSHIKLYTMQGGDPEVAARIITAISNNYDSESSYMETARLFRLYTEIFCDRGAYEVQGSTGPVITSLVKTATGLKQVNAESYIKQAEEIFSADQQLKAASISHPENFIRARAIHLWHEKKEAAEEEIIRMIEGVTDIDALDIFKQKELAACTRQFLQLYLKPNWFRSTLVVSQAKQYFVDFSWDDKIILEETFITRMEKAHESVKNYFSYVLLDFALLDSTLEEIPFGWAFQFAEDIDIKETFDAVVKKELNLSDKKLQQHKQKTLSAFYNVKEGDGEQIYEG	not soluble
MAHHHHHHMLRQCERLIVQLSQQVLEQEKDIHSLRAALHSSQNRRRRHRQRGGDEKRERAAAVSMAESFSVSTERRQHHHTHHITVKAPTQMTMTHEDSRLRLTLPSSMTPQVSPIHLSGDAGVDSATGPYPEAAVVAPHSPQSSGAGSAVPSPTRSVGKSSGEHGMAAALAFPSIVCDVSSFSDKTNVGLTPSAACDHPPSGESATADGLWASSLLSEPERSSSSSSLARHRRNTAQLTRNAQFETPRVNLDNQDAMSYLLCIFSSAKSTREADGGATAAMAEAGEAAPCGREHRGGAGVRSPNAPLQQQGEHVARRLFHLDPVDENEGSESGNEHSSGGAVSDYDRPAARRPFLPPLRDKRGDGDGSAPPNHKTCGAFDEDDAFLQERYARIVACALAAEFAASTTLVEEDEVEQQRGCKTGPRAPTAAWCRTTSRRDHSASATVSELLRLFTFQPATRHQPYSDGKGL	not soluble
MGSDKIHHHHHHLFAIRDEHLALDIVQDSMMKLVEKYSAKPLEELPLLFQRILQNTIRDFYRRQKTRSLWTTLFSAFIPSDHEKESEDFDLLETLQSDPSSSKVNDPHQQLEQSQLINLLERAIETLPARQREAFLLRYWEEMDVMETAKIMGCSEGSVKTHCSRATHTLAAMLKKHGIGL	not soluble
RDPEGLLGDKEDLGITCALIPTDVKGVEIGNRHFPLNVPFQNGPTRGKDIFVPIDFIIGGEKMAGQGWRMLVECLSVGRGITLPSNSTGGIKSAAMATGAYSRIRRQFKQPIGHMEGVEEPLARLGGNAYVMDAASNLTVAGIDLGEKPSVISAIVKYHCTHRGQQSIIDAMDIVGGKGICLGPSNFLARGYQGSPIAVTVEGANILTRSMIIFGQGAIRCHPYVLEEMNAAYSEASDAVEKFDKALAGHVSFTMSNLVRSIWFGLSDGLGSSAPTKDATKRYYQQLNR	not soluble
MSLNLWGDRVGYSKYKYEGLLNLCLEVFQRLGYTKEDSYTIGEVLLLADLFGIESHGVQRLTLYYKGIRNGSIKVKNHMNIVKESPVSVVIDGDGGMGQIISKKAMERAIDKAKKTGIGMAIVKNSNHFGIAGYYSRMAERKGLMGIAMTNTRAIVLPTYGREQMLGTNPISIAMPARPIPFLLDMATSVITRGKVEVYSKNNQKLNYGWAMDDEGRKTDNPDKVLKLANGNTGGLLPLGGDTEIFGGHKGYGISFAVEMFTSILSGGLTSDEIRGNNNTNGVCHAFAAIDYGLFDDKNAIEKRMSAYMQKIRNSKKAYGASRIYTHGEKELEAYEDRMENGIPINENTIVEIKEICDYVDIDINNYLKEGHHHHHH	soluble
MSETATWQPSASIPNLLKRAAIMAEIRRFFADRGVLEVETPCMSQATVTDIHLFPFETRFVGPGHSQGINLYLMTSPEYHMKRLLAAGCGPVFQLCRSFRNEEMGRHHNPEFTMLEWYRPHYDMYRLMNEVDDLLQQVLDCQPAESLSYQQAFQRHLEIDPLSADKTQLREAAAKLDLSNIADTEEDRDTLLQLLFTMGVEPHIGKEKPTFIYHFPASQASLAQISTEDHRVAERFEVYYKGIELANGFHELTDAREQQQRFEQDNRKRAARGLPQQPIDQNLLDALAAGLPDCSGVALGVDRLVMLALGAESLADVIAFTVDRA	not soluble
MDIRLEDEQIKVGDTLLPGVYEGMEVTGDVRSDEEELQSGKRVVHYSYNPTTIRLNLKLLNDADGTPEEKLATIQKVFRPPSQTKPPTYKLVSSHAKARGIGQVMFIRFRSQDTNASDIITVSLEFQETESTTVSVQKVKANTGSGQQYTVKKGDTLWALAKKFNTTVEAIAKANNIANVNLIYVGQKLTIPAASGNASSVASSSAAVDDAEAPKVR	not soluble
TSMIIHRDLEVAIRQDNIIPYFQPIVNAKSGEIIGFEALARWPHPTLGIISPLIFIPLAEQGKLIVELGESILNQSCDFIGKLNTKRHSQGLPPLTVHVNLSAQHFYHSRLISFLQSMIEEHNISAGHLVLEITESMLMGGETESIHCINEIKQLGVQLALDDFGTGYASFSSVCNFPLDIVKLDKSYVDEIETNDRAKTLVRNIANMSQELGLTIVAEGVETASQVRKLKVWNIDELQGFYFYKPMTREDAFAQFSGLPHC	not soluble
MKPIACLFAAFAALPVLAHAQTVQMPDVLAAEHALSLGKPVTATIDLTRCTGDTATTPAGTTRGGVTVNPYRIQPDNTLSFSDTHFTVRSDGTPITQFLRYSIDTSGTARFSSYIFAMPAYTLQSQVSYTCKLGEGVKLFARFLEHHHHHH	soluble
